Data: patent publication US20110293610A1 (published 2011)
Residue numbers refer to the chain shown, from its start.

B1: I029D07 (scFv)
scFv: QVQLQQSGAEVKKPGSSVKVSCKASGYTFTKYTMHWVRQAPGQGPEWMGWINGGSGDTKYSRKFQGRVTITKDTSASAAYMELSSLGSEDTALYYCARATYDPLTGYSFDGFDIWGQGTLVTVSSGGGGSGGGGSGGGGSQSVLTQPASVSGSPGQSITISCTGTSSDVGGYNYVSWYQQHPGKAPKLMIYDVSKRPSGVPDRFSGSKSGNTASLTISGLQAEDEGDYYCSSYAGPSRVFGGGTKVEIKR
B2: I022E02 (scFv)
scFv: QVQLVQSGAEVKKPGASVMVSCKASGYTFSTYAVHWVRQAPGQGLEWMGRINAGNGYTKYSQKFQGRVTITKDTSASAAYMELSSLGSEDTALYYCARATYDPLTGYSFDGLDIWGKGTMVTVSSGGGGSGGGGSGGGGSQSVLTQPASVSGSPGQSITISCTGTSSDVGGYNYVSWYQQHPGKAPKLMIYEGSKRPSGVSNRFSGSKSGNTASLTISGLQAEDEADYYCSSYTTRSTRVFGGGTKLTVLG
B3: I017D10 (scFv)
scFv: RVQLVQSGAEVKKPGASVKVSCKASGYTFTSDHISWVRQAPGQGLEWMGWISPHHGKTNYAQKLQGRVTMTTDTSTSTAYMELRSLRSDDTAVYYCARVQMDSEYYDLLTGINVGPYYFDYWGKGTLVTVSSGGGGSGGGGSGGGGSSELTQDPAVSVALGQTVRITCQGDSLRSYYASWYQQKPGQAPVLVIYGKNNRPSGIPDRFSGSSSGNTASLTITGAQAEDEADYYCNSRDSSGNHVVFGGGTKLTVLG
B4: I061E07 (scFv)
scFv: QVQLQQSGAEVKKTGASVKVSCKASGYIFADYYVHWVRQAAGQGLEWMGWINPNTGSTKYAQKFQDRVTMTRDTSIKTVYMELRRLRSDDTALYYCARATYDPLTGYSFDGFDIWGKGTMVTVSSGGGGSGGGGSGGGGSQSVLTQPPSASGTPGQRVTISCSGSSSNIGSNTVNWYQRLPGAAPQLLIYNNDQRPSGIPDRFSGSKSGTSGSLVISGLQSEDEADYYCASWDDSLNGRVFGGGTKLTVLG
B5: I006D07 (scFv)
scFv: EVQLVESGGGVVQPGGSLRLSCAASGFTVNSYAMHWVRQAPGKGLQWVAVIPYDGSKKYYADSVKGRFTVSRDNSKNTLYLQMNSLRAEDTAVYYCARSHYDILTGLNYWYFDLWGRGTLVTVSSGGGGSGGGGSGGGGSSELTQDPAVSVALGQTVRITCQGDSLRSYYASWYQQKPGQAPVLVIYGKNNRPSGIPDRFSGSSSGNTASLTITGAQAEDEADYYCNSRGSSGNHVVFGGGTKLTVLG
B6: I008C02 (scFv)
scFv: AVQLQESGPGLVKPSETLSLTCSVSGASMTTNKFYWSWIRQPPGKGLEWIGNINYSKSTNYNPSLKSRITISVDTSKNQLSLKLNSVTAADTAVYYCARHVRDYDILTGYYRGHYFDYWGQGTMVTVSSGGGGSGGGGSGGGGSQSVLTQPASVSGSPGQSITISCTGTSSDVGGYNYVSWYQQHPGKAPKLMIYEGSKRPSGVSNRFSGSKSGNTASLTISGLQAEDEADYYCSSYTTRSTRVFGGGTKLTVLG
B7: I001C09 (scFv)
scFv: GVQLVQSGPEVKKPGASVKVSCTASGYTFTSYGVSWVRQAPGQGLEWIGWISAHNGQTKYAEKFQGRVTMTRNTSISTAYMELSSLRSEDTAVYYCARDGSYDILTGYYIDNYMDVWGKGTMVTVSSGGGGSGGGGSGGGGSSELTQDPAVSVALGQTVRITCQGDSLRSYYTNWFQQKPGQAPLLVVYAKNKRPSGIPDRFSGSSSGNTASLTITGAQAEDEADYYCHSRDSSGNHVLFGGGTKLTVLG
B8: I018D07 (scFv)
scFv: B7 scFv with K19I
B9: I008B01 (scFv)
scFv: QVQLVQSGAEVMKPGASVKVSCKASGYNFNNYAMQWVRQAPGQRLEWMGWIVPGNGKTKYSQKFQDRVTIARDTSASTVYMELSSLTSEDTAMYYCARATYDPLTGYSFDGFDIWGQGTTVTVSSGGGGSGGGGSGGGGSQSVLTQPASVSGSPGQSITISCTGTSSDVGGYNYVSWYQQHPGKAPKLMIYEGSKRPSGVSNRFSGSKSGNTASLTISGLQAEDEADYYCSSYTTRSTRVFGGGTKLTVLG
B10: I016E05 (scFv)
scFv: QVQLQQSGAEVKKPGASVKVSCKASGYTFTKYTMHWVRQAPGQGPEWMGWINGGSGDTKYSRKFQGRVTITKDTSASAAYMELSSLGSEDTALYYCARATYDPLTGYSFDGFDIWGKGTMVTVSSGGGGSGGGGSGGGGSQSALTQPASVSGSPGQSITISCTGTSSDVGGYNYVSWYQQHPGKAPKLMIYEGSKRPSGVSNRFSGSKSGNTASLTISGLQAEDEADYYCSSYTTRSTRVFGGGTKLTVLG
B11: I018H09 (scFv)
scFv: B10 scFv with A79T, A143V
B12: I018H08 (scFv)
scFv: B10 scFv with K19N, K117Q, A143V, V249I
notes: also called 1018H08
B13: I018C02 (scFv)
scFv: QVQLQQSGSELKKPGASVIVSCKVSGYSLTKMSMHWVRQSPGEGLEWVGGIDPETRQPVYAQKFQGRVTITKDTSASAAYMELSSLGSEDTALYYCARATYDPLTGYSFDGFDIWGQGTLVTVSSGGGGSGGGGSGGGGSQSVLTQPASVSGSPGQSITISCTGTSSDVGGYNYVSWYQQHPGKAPKLMIYEGSKRPSGVSNRFSGSKSGNTASLTISGLQAEDEADYYCSSYTTRSTRVFGGGTKLTVLG
B14: I003F12S (scFv)
scFv: QVQLLQSAAELKKPGQSLKISCKGSGFTFTTYWIGWVRQLPGKGLEWMGIIYPGDSHTTYSPSFEGHVNISVDKSINTAYLQWSSLKASDTAMYYCARHDDDVLTGYYFESWGQGTMVTVSSGGGGSGGGGSGGGGSQSVLTQPASVSGSPGQSITISCTGTSSDVGGYNYVSWYQQHPGKAPKLMIYEGSKRPSGVSNRFSGSKSGNTASLTISGLQAEDEADYYCSSYTTRSTRVFGGGTKLTVLG

The binders below were run against T1, B Lymphocyte Stimulator, soluble form (human) (human, UniProt Q9Y275 134-285, biotinylated with NHS-biotin where used as biotinylated B Lymphocyte Stimulator) (assay: phage competition ELISA).
T1 construct: Coated on plastic, captured on streptavidin plates, amine-coupled to a CM5 chip or free in solution, depending on the assay; also called BLyS; immobilized B Lymphocyte Stimulator
B1: binds.
B2: binds.
B3: binds.
B4: binds.
B5: binds.
B6: binds.
B7: binds.
B8: binds.
B9: binds.
B10: binds.
B11: binds.
B12: binds.
B13: binds.

The binders below were run against T2, membrane-bound B Lymphocyte Stimulator on U937 plasma membrane preparations (human, UniProt Q9Y275 1-285) (assay: phage ELISA).
T2 construct: Natural protein in plasma membrane fractions of the human cell line U937 coated on ELISA plates; also called U937 plasma membranes; U937 membranes
B1: binds.
B2: binds.
B3: binds.
B4: binds.
B5: binds.
B6: binds.
B7: binds.
B8: binds.
B9: binds.
B10: binds.
B11: binds.
B12: binds.
B13: binds.

Each binder was assayed against T3, Fas ligand (human, UniProt P48023 134-281, limits assumed) (assay: phage ELISA).
T3 sequence (looked up): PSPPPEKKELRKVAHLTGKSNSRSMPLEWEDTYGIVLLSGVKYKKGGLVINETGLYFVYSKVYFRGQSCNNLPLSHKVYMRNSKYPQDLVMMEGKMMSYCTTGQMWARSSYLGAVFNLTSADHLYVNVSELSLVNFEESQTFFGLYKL
B1: no binding.
B2: no binding.
B3: no binding.
B4: no binding.
B5: no binding.
B6: no binding.
B7: no binding.
B8: no binding.
B9: no binding.
B14: no binding.
B10: no binding.
B11: no binding.
B12: no binding.
B13: no binding.

Each binder was assayed against T4, TNF-beta (human, UniProt P01374 35-205) (assay: phage ELISA).
T4 construct: also called TNFβ; Tumour Necrosis Factor-beta
T4 sequence (looked up): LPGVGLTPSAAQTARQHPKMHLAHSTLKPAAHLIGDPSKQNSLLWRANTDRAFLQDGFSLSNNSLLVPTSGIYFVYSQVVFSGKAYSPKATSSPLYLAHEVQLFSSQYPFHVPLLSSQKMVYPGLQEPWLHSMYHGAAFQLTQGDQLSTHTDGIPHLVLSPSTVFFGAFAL
B1: no binding.
B2: no binding.
B3: no binding.
B4: no binding.
B5: no binding.
B6: no binding.
B7: no binding.
B8: no binding.
B9: no binding.
B14: no binding.
B10: no binding.
B11: no binding.
B12: no binding.
B13: no binding.

What follows are binders tested against T5, TNF-alpha (human, UniProt P01375 77-233) (assay: phage ELISA).
T5 construct: also called TNFα; TNF-α
T5 sequence (P01375 77-233 limits assumed): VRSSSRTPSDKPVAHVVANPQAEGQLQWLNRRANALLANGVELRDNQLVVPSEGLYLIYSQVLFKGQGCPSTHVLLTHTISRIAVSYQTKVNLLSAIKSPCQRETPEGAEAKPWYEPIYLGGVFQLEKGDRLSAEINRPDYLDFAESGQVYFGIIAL
B1: no binding.
B2: no binding.
B3: no binding.
B4: no binding.
B5: no binding.
B6: no binding.
B9: no binding.
B14: no binding.
B10: no binding.
B11: no binding.
B12: no binding.
B13: no binding.

Each binder was assayed against T6, TRAIL (human, UniProt P50591 114-281) (assay: phage ELISA).
T6 construct: also called TNF-related apoptosis inducing ligand
T6 sequence (P50591 114-281 limits assumed): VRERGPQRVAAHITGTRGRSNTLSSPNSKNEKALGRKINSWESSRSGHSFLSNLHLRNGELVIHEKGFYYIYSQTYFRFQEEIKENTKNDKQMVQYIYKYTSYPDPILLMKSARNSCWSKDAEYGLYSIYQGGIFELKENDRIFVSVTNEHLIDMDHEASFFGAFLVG
B1: no binding.
B2: no binding.
B3: no binding.
B4: no binding.
B5: no binding.
B6: no binding.
B7: no binding.
B8: no binding.
B9: no binding.
B14: no binding.
B10: no binding.
B11: no binding.
B12: no binding.
B13: no binding.
